Assay: yeast display, Sf9 membrane polyspecificity reagent, FACS + sequencing; frameworks hold sequencing errors
How it was run: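 Nanobodies came from a synthetic yeast display library in Saccharomyces cerevisiae BJ5465, induced with galactose for 36–48 hours and stained for 1 hour at 4 °C with 10% biotinylated, detergent-solubilized Sf9 membrane reagent. Cells were enriched on streptavidin microbeads and then FACS-sorted, with low and high (top ~1%) gates set on anti-HA fluorescence for expression and streptavidin fluorescence for reagent binding. Each polyreactivity label reflects the gate a clone came from. Genes were amplified by colony PCR, sequenced by MiSeq 2 × 250 and filtered by CDR length.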

Row | Sequence | polyreactivity (PSR sort gate)
1 | QVQLVESGGGLVQAGGSLRLSCAASGSNFRYYAMGWYRQAPGKERELFAAISSNGGSTSYADSVKGRFTISRDNAKNTVYLQMNSLKPEDTAVYYCAATRRWYPTKLYGYWGQGTQVTVSS | high polyreactivity
2 | QVQLVESGGGLVQAGGSLRLTCAASGLTFGLYAMGWYRQAPGKERELVAAITRGDSTNYADSVKGRFTISRDNAKNTVYLQMNSLKPEDTAVYYFNAVRTYWWGYNQQYNYWGQGTQVTVSS | high polyreactivity
3 | QVQLVESGGGLVQAGGSLRFTFGATGIIFYRNTMGWYSLAPGKHRELVASLSRGGSTNYADSVKGRFTISRDNAKTTVYLQMNRLKPEDTAVDYCAAYTDIPLSYYRGYTMDYWGQGTQVTVSS | low polyreactivity
4 | QVQLVESGGGLVQAGGSHRLSCAASGSIYLYYAMGRYRQAPGKERELVAGINRVGSTNYADSVKGRFTISRDNAKNTVYLQMNSLKPEDTAGYYCAKVVNGGYFYYQYPAQYYYWGQGTQVTVSS | low polyreactivity
5 | QVQLVESGGGLGQAGGSLRLSCAASGRTFAAYAMGWYRQAPGKERELVAAISAGDGTNYADSVKGRFTISRVNAQNTVYLQMNSLKPEDTAVYYCAAVGPLFWPYYSYRRGYDYWGQGTQVTVSS | low polyreactivity
6 | QVQLVESGGGLVQAGGSLRLSCAASGLTLRYYVMGWNSQAPGKERELVAAISSGGGSTYYADSVKGRFTISRDNAKNTVYLQMNSRKPEDTAVYYCAADSVSRYNGYDYWGQGTQVTVSS | high polyreactivity
7 | QVQLVESGGGLVQAGGSLRLSCAASGRILGKYAMGWYRQSPGKERELVAAIRLRGGSTYYADSVKGRFTISRDNAKNTLYLQMNSLKPEDTAVYYCAARFWDRSQAYNYWGQGTQVTVSS | high polyreactivity
8 | QVQLVESGGGLVQAGGSLRLSCAASGSNFINNAMGWYRQAPGKERELVAAISGNADRTYYADSVKGRFTISRDNAKNTLYLQMNSLKPEETAVYYCNKGYGVYYTFGSWGQGTQVTVSS | low polyreactivity
9 | QVQLVESGGGLVQAGGSLRLSCAASGSTFFRYAMGWYRQAPGKEREFVAAITWSGTGTYYADSVKGRFTISRDNAKNTVYLQMNSLKPEDTAVYYCNADPFDLWAFYYGYVYGYYHWGQGTQVTVSS | high polyreactivity
10 | QVQLVESGGGLVQAGGSLRLSCAASGFTFWRYAMGWYRQAPGKERELVAAISRTGGRTYYADSVKGRFTISRDNAKNTVYLQMNSLKPEDTAVYYCAADWLYDYGEYYYWGQGTQVTVSS | high polyreactivity
11 | QVQLVESGGGLVQAGASLRLSCAASGRTFPGYAMGWSRQAPGKERELVAAITYRGGSTYYADSVKGRFTISRDNAKNTVYLQMNSLKPEDTAVYYCNARHSRSRFYYWGQGTQVTVSS | high polyreactivity
12 | QVQLVESGGGLVQAGGSLRLSCAASGSIFADNAMGWYRQAPGKERELVAAITWSGGSTYYADSVKGRFTISRDNAKNTVYLQMNSLKPEDTAVYYCNADDAVEYSYGGGTEFYYWGQGTQVTVSS | low polyreactivity
13 | QVQLVESGGGLVQAGGSLRLSCASSGRIFGVYAMGWYRQAPGKERELVAAITRGASTYYADSVKGRFTISRDNAKNTVYLQMNSLKPEDTAVYYCAVSQDRGIYRKYDYWGQGTQVTVSS | high polyreactivity
14 | QVQLVESGGGLVQAGGRVRLSCAASVSTFKQYSMGWYRQATGKERELVAAITRGGRTNYAYSVKGRFTISRDNAKNTVSLQMNSLKQEDTAVYYCAKLLSGYGRWWYDYWGQGTQVTLSS | high polyreactivity
15 | QDQLVESGGCLDQAGCSLRLSCAASGSIFYYNAMGWSRQAHGKESEFVATITNSGGRTYDADSVKGRFTISRDNAKNSVYLQMNSLKPEDTAVYYCNADVHRFSGNGYRYYYWGQGTQVTVSS | low polyreactivity
16 | QVHHEESGGGLFQAGGRLRLSCAASGYIFYDYSMGWYRQAPGKERELVAAISSGGSTNYADSVKGRFTISRDNAKNTVYLQMNSLIPEDTAVYYCASDDRSYATWKRDYDYWGQGTHVTVSS | low polyreactivity
17 | QVQLVDSGGGLVQAGGSLRLSCAASGRTFKRYDMGWYRQAPGKEREFVAAISWTGGSTYYADTVKGRFTISRDHAKNSVYLQMNSLKPEDTAVYYCARKFLWQGFVYWGQGTQVTVSS | low polyreactivity
18 | QVQLVESGGGLVQAGGSLRLSCAASGLIIWLYTLGWYRQAPGKESELVAAIDWSGGSTYYADSVKGRFTISRDNAKNTVYLQMNSLKPEDTAVYYCAADPEPSYRFDYWGQGTQVTVSS | low polyreactivity
19 | QVQLVESGGGLVQAGGSLRLSCAASGRIFVVYAMGWYRQAPGKERELVASITWRGGSTYYADSVKGRFTISRDNAKNTVDLQMNSLKPEDTAVYYCAAELDVYVSIGSRFHFDYCGQGTQVTVSS | low polyreactivity
20 | QVQLVESGGGLVQAGGSLRLSCAASGSTFVDNAMGWYRQAPGKERELVAAISTRGGTTYYADSVKGRFTISRDNAKNTVYLQMKSLKAEDTAVYYCAAEIFTSVWWRWVDGDYWGQGTQVTVSS | high polyreactivity
21 | QVQLVESGGGLVQAGRSLRLSCAASGYTFYVYAMGWYRQAPGKERELVASISSGGITYYADSVKGRFTISRDNAKNTVYLQMNILKPEDTAVYYCAADWQWTYDYWGQGTQVTVSS | low polyreactivity
22 | QVQLVESGGGLVQAGGSLRLSCAASGRTFSRYAMGWYRQAPGKERELVATINSRAGITNYADSVKGRFTISRDNAKNTVYLQMNSLKPEDTAVYYCAAKGVIISYDTLRYDYWGQATQVTVSS | high polyreactivity

Row | Sequence | polyreactivity (PSR sort gate)
23 | QVQLVESGGGLVQAGGSLRLSCAASGFTFVSYTMGWYRQAPGKERELVAVITKRGGSTYYADSVKGRFTISRDNAKNTVYLQLNCLKPEDTAVYYCNAVQAYKSPSLPLAGGNYWGQGTQVTVSS | high polyreactivity
24 | QVQLVESGGGLVQAGGSLRLSCAASGSTFWEKAIGWSRQAPGKEMELAAAISWGGASTYYADSVKGRFTISRDNAKNTVYLQMNSLKPEDTAVYYCAADQTSTQFLSSYGGYNYWGQGTQVTVSS | low polyreactivity
25 | QVQLQESGGGLVQAGGSLRLSCAARGSICLDQPMGWYRQSPCKDPELVATIGQGGNTNYADSVKGRFTISRDNEKNTVYLYMTSLKPEDTAVYYCAVVYFYNYAYHYYWGQGTQVTVCS | low polyreactivity
26 | QVQLVESGGGLVQAGGSLRLICAASGRTFYYYAIGWYRQAPGKERELVASISYSAGRTYADSVKGRFTSSRDNAKNTVYLQMNSLKPEDTAVYYCNSDVTTVPYTNDYWGQGTQVTVSS | high polyreactivity
27 | QVQLVESGGGLVQAGGSLRLSCAASGSIFRPYAMGWYRPAPGKERELVAAITSGGRTNYADSVKGRFTISRDNAKNTVYLQMNSLKPEDTAVYYCAKTGSYAKIRPNNDYWGQGTQVTVSS | low polyreactivity
28 | QVQLVESGGGLVQAGGSLRLSCAASGITFGYYTMGWYRQAPGKEREFDAAISSTGGTYYADSVKGRFTISRDNAQNTVYLQMNSLKPEDTAVYYCAATFIQVVVNVQLYDYDYWGQGTQVTVSS | low polyreactivity
29 | QVQLVESGGGLVQAGGSLRLSCSASGFTFDYYAMGWYRQAPGKERELVAAITWNTVSTYYADSVKGRFTISRDNAKNTVYLQMNSLKPEDTAVYYCAADTQWLYRYDYWGQGTQVTVSS | low polyreactivity
30 | QVQLVESGGGLVQAGGSLSLSCAASGFTIYYYAMGWYRQAPGKERELVASITSGGSTYYADSVKGRFTISRDNAKNTVYLQMNSLKPEDTAVYYCAKTRFHSKEGDYWGQGTQVTVSS | low polyreactivity
31 | QFQLVESGGGLVQAGGRLRLSCAASGSTLRRYAMGWYRQAPGKERELVAAITYRSGSTYYADSVKGRFTISRDNAKNTVYLEMNSLKPVDTAVYYCAKVGYVSKYWFAGDYWGQGTQVTVSS | high polyreactivity
32 | QVQLVESGGGLVQAGGSLRISSPASGSIFTLYDMGWYRQAPGKERELVSAITEDGASTYYADSVKGRFTISRDIAKNTVYLQMNSLKPEDTAYYYCAAHPTYWPVWYVLYDYWGQGTQVTLSS | low polyreactivity
33 | QVQLVESGGGLVQAGGSLRLSCAASGFTFYTNAMGWYRQAPGKERELVAGINSGSSTYYADSVKGRFTISRDNAKNNVYLQMNSLKPEDTAVYYCAARRSRYIHRGFGYWGQGTQVTVSS | high polyreactivity
34 | QVQLVESGGGLVQAGGSLRLSCAASGFIYGFYVMGWYRQAPGKERELVAAITTSGDSTYYADSVKGRFTISRDNAKNTVFLQMNSLKPEDTAVYYCAADNVHSEYEYWGQGTQVTVSS | high polyreactivity
35 | QVQLVESGGGLVQAGGSLRLSCAASGFIFDQYAMGWYRQAPGKERELVAAITSGGDTNYADSVKGRFTISRDNAKNTVYFQMNSLKPEDTAVYYCNVDVPGVRFEYWGQGTQVTVSS | low polyreactivity
36 | QVQLVESGGGLVQAGGSLRLSCPASGSIFDLYAMGWYRQAPGKERELVASIRYSGGRTYYADSVKGRFTISRDNAKNTVYLQMNSLKPEDTAVYYCNRDGGYTFIMDYWGQGNQVTVSS | low polyreactivity
37 | QVHLVESGGGLVQAGGSLRISCAASGYIFSYYAMGWYRQAPGKERELVASITSSGGSTYYADSVKGRFTISRDNAKNTVYLQMNSLKPEYTAEYYCNADVYDTYSPLGYYYWGQGTQVTVSS | low polyreactivity
38 | QVQLVESGGGLVQAGGSLRLSCAASGSTFGYYTMGWYRQAPGKERELVAAISGSGGRTYYADSVKGRFTISRDNAKKTVNLQMNSLKPEDTAVYYCAAEGRSDWGGDDYYWGQGTQVTVSS | low polyreactivity
39 | QVQLVESGVGLVQARGSLPLSCAASGFIFNTMGWYRQAPGKERELVATISWSDGSTYYADSVKGRFTISRDNAKNTVYLQMNTLKPEDTAVYYCAATTDALVGRPRYDYWGQGTQVTVSS | low polyreactivity
40 | QVQLVESGGGLVQAGGSLRLSCAASGSTYGYAMGWYRQAPGKEMKLVARITWRGGSTSYADSVKGRFTITRDNAKNTVYLQMNSLKPEDTAVYYCADGFYFQVYTYVRKRYYYWGQGTQVTVSS | high polyreactivity
41 | QDQLGESGGGLVQAGGSLRLSCAASGSTFTWYAMGWYRQAPGKERELVAAISRGGSTNYADSVKGRFTISRDNAKNTVYLQMNSLKPEDTAVYYFAAESYWRDDYWGQGTQVTLSS | low polyreactivity
42 | QVQLVESGGGLVQAGGSLRLSCAASGRTFNGYAMGWYRQAPGKERELVASISWSGGRTYYADSVKGRFTISRDNAKNTVYFQMNSLKPEDTAVYYCAATFVNVVGYDYWGQGTQVTVST | high polyreactivity
43 | QVQLVESGGGLVQAGGSLRLSCASSGSIININVMGWYRQAPGKERELVAAINSGTSTYYADSVKGRFTFSRDNAKITVYLKMNSLKPEDTAVYYCAARNLFTGRRLFYFWGQGTQVTVSS | low polyreactivity
